This assay concerns the target T1, 新型冠状病毒野生型Spike RBD蛋白 (新型冠状病毒野生型 (SARS-CoV-2 wild type), UniProt P0DTC2 319-537).
T1 construct: domain: Spike RBD
Description: ELISA binding experiment (Fig. 3). On the technique in general: An ELISA detects its analyte on a solid surface through an enzyme-linked reagent.

B1: 克隆号为3A7C12的抗体 (antibody, V domains shown)
VH: EVQLVESGGGLVKPGGSLRLSCAASGFTFSSYSMNWVRQAPGKGLEWVSSISSGSSYIYFADSVKGRFTISRDNAKNSLFLQMNSLRAEDTATYYCARAPLGYDSSGYFTMYYFDYWGQGTLVTVSS
VL: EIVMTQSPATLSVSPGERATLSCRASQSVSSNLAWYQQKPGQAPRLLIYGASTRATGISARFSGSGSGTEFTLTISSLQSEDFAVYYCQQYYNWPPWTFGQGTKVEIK
notes: also called 3A7C12克隆号抗体
On to B1, for which the binding result was “no binding”.
